Assay: In vivo aminotransferase activity screening, 7-aminoheptanoate by LC-MS
Type: cell-based, Escherichia coli
Conditions: in vivo conversion of 7-oxoheptanoate to 7-aminoheptanoate, 120 aminotransferases screened
Experimental: A 165-member aminotransferase library from Twist on IPTG-inducible T7- pUC expression vectors was co-transformed into T7 Express lysY/Iq with a constitutive expression pJ23150-derived plasmid bearing the phosphopantetheinyl transferase sfp from Bacillus subtilis, CAR_Srot from Invista and BioC from Serratia marcescens (UniprotKB Accession No. P36571 (SEQ ID NO: 165)). The resulting strains were incubated in 0.5 ml of rich media (terrific broth or LB containing 8% glycerol) supplemented with 0.4 mM IPTG and received 1 g/L monomethyl heptanedioate, 1 g/L heptanedioate, or no organic acid addition, depending on the experiment. Following incubation overnight at 37° C. in a shaking incubator, cells were pelleted and the supernatants were analyzed using LC-MS for 7-aminoheptanoate or monomethyl 7-aminoheptanoate. A Vibrio fluvialis aminotransferase (UniProtKB Accession No. F2XBU9 (SEQ ID NO: 128)) was used as a positive control.

Row | Molecule | 7-aminoheptanoate yield compared to the positive control (F2XBU9)
1 | SEQ ID NO: 171: Tistrella mobilis aminotransferase (protein, Tistrella mobilis (strain KA081020-065), Tistrella mobilis aminotransferase) MAYSPNSPEARDIAYHLHSYTDARRHEETGSVVLEKGDGVFVEDIHGNRYIEAMAGLWSVALGFSEKRLADAAARQMAKLPFAHTFSYKSNGPVIDLAEKLISLAPVPMSKVFFTNSGSEANDTILKLLWYRSNSMGQPQRKKIISRVRGYHGVTIASASLTGLPNNHRSFDLPIANVLHTGSPHHWKDANPGESEEDFATRRAEELEAMILAEGPETIMAFIGEPVMGAGGVVVPPATYWEKIQAVLAKYDILLIADEVICGFGRTGNMFGSQTYDMRPDIMTMSKQLSSSYLPISAFMINEKVYGPIADESHRIGVLGHGFTAGGHPVASAVALENLKIIEERDLVANAREMGERLRGRFHALEGHPLVGEVRGVGLIAAVELVTNKEAKTALEAPGALGGKVAAALQARGVIVRNMLDAIAFCPPLIIKAEEVDMIADRFEAVLNDVAAEVL | higher 7-aminoheptanoate yields
2 | SEQ ID NO: 172: Pseudomonas taiwanensis SJ9 aminotransferase (protein, Pseudomonas taiwanensis SJ9, Pseudomonas taiwanensis SJ9 aminotransferase) MSQSNILLAKKDVQHHLHPYTDARLHQDVGPLIIDRGEGVYVFDVEGKRYIEAMSGLWSVALGFSNERLVKAAEQQMRKLPFYHIFTHKGHGPSIELAEKLIEIAPVPMSKVFFTNSGSEANDTVVKMIWYRNNALGKPEKKKFISRLNAYHGITAVSASLTGLPVNQRGFDVPLPGFHHVSCPHFYRNGQPGETEEQFADRMAAELESVILREGPETIAAFYGEPLMGAGGVIVPPRTYWEKMQAVCRKYDILIVADEVICGFGRTGKMFGCETFGIQPDVMVISKQMSSSYQPIAAILINEKVFEGIADQSRALGTLGHGFTASGHPVASAVALENIKIIQEQNLVGHAAEMGELLRAKLAGFADHPMVGEVRGCGLIAAVELVTDRKTKAPFETVGRLGRFLAARAQAHGMITRPIGDSIAFCPPLISTKQEIQEIADIFGKAFEDTERWFSQGGK | higher 7-aminoheptanoate yields
3 | SEQ ID NO: 121: Haematobacter missouriensis aminotransferase (protein, listed as Haematobacter missouriensis) MMDTLPNSLAARDVKYLLHPNTNARMHEQNGPMVISRGDGIHVYDDAGKEYIEALAGLWSVAVGFGEKRLVEAAQRQMSTLPYYHIFSSKSHEPAIDLAETLVKMTPEHLTRVFYTNSGSEANDTVVKMIWYYNNVLGRPEKKKIIARKNGYHGITVASASLTGLPINHKDFDLPLPQMKHVTTPHFYRFGEEGETEEQFSDRLAQEIEDMILAEGPETVAAFIGEPVIGAGGVLVPPKGYWEKVQKVLKKYDILLVADEVIMGFGRSGKTFACEYYGIKPDFLVLSKQITSSYQPLAAIMLTDAIYQAIADGSQKNGAFGHGYTASGHPVAMAVAIENLKIIEERGLVANAEKVGAYMQKRLREFADHPLVGEVRGVGLIAAVELVADKATKAKFDPVGKAGAIYTRKSAENGLINRAIGDTICFCPPLIITEAQVDEMIARFSKSLDETAAELKG | higher 7-aminoheptanoate yields
4 | SEQ ID NO: 173: Methylobacterium aquaticum aminotransferase (protein, listed as Methylobacterium aquaticum) MLSNLATRDVETLIHPYTNLAAFRQTGPLVLERGHGVWVYDTDGRPYLEGMAGLWCTALGYSNEELVEAAREQMSRLPFTHLFSGRSHDPAIELAETLKELAPIPVSKVFFTSSGSEANDTQVKLTWYLNNALGRPQKKKIIGRHKGYHGVTVASASLTGLTANHADWDLPLPGFLHAACPHHYRGAEAGETEEAYSARLATELEEMILREGPETVAAFIAEPVMGAGGAIVPPKGYFAAIEPVLARYDVRFIADEVICGFGRLGTWFGSEALGMKPHSLSFAKALTSAYMPLGGVTVDETLYQAMQDQSRKIGTFGHGTTYSGHPVASAVALKTIEIYRRDKIIEGAAEKAPHFQRRLSALEEHPLVGEAKGMGLIGGLEIVADKATKRQYDPKAGVAARCVAFAQEEGLIVRFLTGDRVAVCPPLVIRPDEIDTLFDRLGTALDRTQAWIREQGLTAA | higher 7-aminoheptanoate yields
5 | SEQ ID NO: 174: Candida tenuis aminotransferase (protein, listed as Candida tenuis, Candida tenuis (strain ATCC 10573 / BCRC 21748 / CBS 615 / JCM 9827 / NBRC 10315 / NRRL Y-1498 / VKM Y-70), Candida tenuis aminotransferase) MNSSKSQICLATERQYSAKNYTPMPVVFKKAIGCKVWDVDDNEYLDFGGSYCATNQGHSHPKIVQALIDQAQICALPSRAFTHNLYGDYIKFVCQYFDFEKALPLNGGSEAIEFAIKLARAWGYTKKGISQNEAIVLFAANNYHGRTLGSTSASTTPGARKNYGPFLPKVGPYYGSEGKFIRYNHIEDIEEAFKTDGPNIAAIVLESLQGEAGIYVPKDGYLQQVKRLCEEYNILYIADEVQMGAGRTGTLLSCEQDGIKPDVLVVAKSIGGGVYPTSLVLSSGEIMDCIEPNSHGATFSGSPLSCATSKVALEVLIEDNMIDNAKHLGKIMLDGLNSIREKSSIITDVRGRGLMAGFDIDESQLNGKKVWHVCMLLRSKGIICKMVHAKTIRWAPALVITEEELRFGLRMLEQTINEITALEIADIPDAVTFDYLRY | higher 7-aminoheptanoate yields
6 | SEQ ID NO: 175: Tepidicaulis marinus aminotransferase (protein, listed as Tepidicaulis marinus) MSQTAQISNQTRRWQEMDARHHVHPFSDQAALAKKGARVITHAEGVYLYDSEGHKIIDGMAGLWCVNVGYGRSELAEAGYKALKELPYYNTFFQTTNPYTAELGERLAEVTPDGLDRFFFANSGSEANDSMVKIIRYYWSLQGKPEKKVFISRKQAYHGVTMTAASLSGISAMHPQAGLPLPNHAHIDFPYWYGMGGDMDPNEFGVHIAMKLEEKILEIGAENVAAFVAEPVQGAGGLIIPPDSYWPVIQEICHKYDILLHADEVICGFGRTGNWFGSHTYGIVPDTMAMAKGMTSGYQPLSAVALGPRVGDALHNSGEEWSHGFTYSGHPVASAVALANLDVLQKDKLVEKAGGETGEHFLKHLHALADHPIVGETRGVGLLGAIELVKDKKTRERFEGDTGGLCRDHCFENDLIMRAIGNTMVLSPPLSITKAELDELFTLARKALDATAKDLGAM | higher 7-aminoheptanoate yields
7 | SEQ ID NO: 176: Firmicutes bacterium CAG:24 aminotransferase (protein, Firmicutes bacterium CAG:24, Firmicutes bacterium CAG:24 aminotransferase) MGELMQQYIDEAEQDLLHTYNRYQVVLDRGDGVSLYDIEGKRYLDFVAGIAVFALGYHNAEYNDALKAQIDKVIHTSNYYYNVPAVEAARHLKKVSRMDRVFFTNSGAEAIEGAIKAARKYAYLKDGTTDHEIIAMNHSFHGRTMGALSVTGNPHYREAFEPGIGNIRFADLNDFDSVLACVNDKTCAILLETVQGEGGIYPVQEDFLKKVRALCDEKDILLILDEIQCGMGRTGYWYAWQKYGVKPDIMTTAKALGCGVPVGAFLMTEKVGQHSLTAGDHGTTYGGNPLACAAVAKVLDLFEENNILEHVREVSAYLEEKLDSLAAKYDFITDRRGMGLMQGLVFDRPVAPVINAALENGLILINAGTNIIRFVPPLVITDADVDEMIEILDSCLKTFQEQNA | higher 7-aminoheptanoate yields

Reference: patent publication US10801046B2, “Methods and materials for biosynthesizing multifunctional, multivariate molecules via carbon chain modification” (INVISTA NORTH AMERICA S.A.R.L., priority 2016, dated 2020)
